Laboratory results published in patent US9959384 (BIONIZ, dated 2018).
No end group written: not given here.

Target: T1, human common gamma chain (γc, CD132) (human, UniProt P31785 23-369)
T1 sequence (looked up): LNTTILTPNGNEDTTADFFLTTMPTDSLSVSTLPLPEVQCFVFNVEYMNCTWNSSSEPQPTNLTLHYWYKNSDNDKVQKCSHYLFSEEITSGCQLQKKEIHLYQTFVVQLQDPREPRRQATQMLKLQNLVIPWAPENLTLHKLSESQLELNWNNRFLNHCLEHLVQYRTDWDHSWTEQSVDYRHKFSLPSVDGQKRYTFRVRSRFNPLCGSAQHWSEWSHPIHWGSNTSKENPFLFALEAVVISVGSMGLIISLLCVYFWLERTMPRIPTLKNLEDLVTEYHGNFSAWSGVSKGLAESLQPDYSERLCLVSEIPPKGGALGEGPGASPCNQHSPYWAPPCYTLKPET
Test: cell-based or functional assay

IC50 of inhibition of IL-2/IL-15-induced proliferation of ex vivo human T-lymphocytes (IL-2 + IL-15, 0.1 nM each): 150 nM
Binder: IKEFLQSFIHIVQSIINT (not fully specified) [BNZ132-1 peptide]
